Reference: IntAct's records for PubMed 29106382

B1: Angiopoietin-1 (Homo sapiens), Q15389 (parent)
chain: MTVFLSFAFLAAILTHIGCSNQRRSPENSGRRYNRIQHGQCAYTFILPEHDGNCRESTTDQYNTNALQRDAPHVEPDFSSQKLQHLEHVMENYTQWLQKLENYIVENMKSEMAQIQQNAVQNHTATMLEIGTSLLSQTAEQTRKLTDVETQVLNQTSRLEIQLLENSLSTYKLEKQLLQQTNEILKIHEKNSLLEHKILEMEGKHKEELDTLKEEKENLQGLVTRQTYIIQELEKQLNRATTNNSVLQKQQLELMDTVHNLVNLCTKEGVLLKGGKREEEKPFRDCADVYQAGFNKSGIYTIYINNMPEPKKVFCNMDVNGGGWTVIQHREDGSLDFQRGWKEYKMGFGNPSGEYWLGNEFIFAITSQRQYMLRIELMDWEGNRAYSQYDRFHIGNEKQNYRLYLKGHTGTAGKQSSLILHGADFSTKDADNDNCMCKCALMLTGGWWFDACGPSNLNGMFYTAGQNHGKLNGIKWHYFKGPSYSLRSTTMMIRPLDF

Variants of: B1
Conditions: with tie2_human TEK

Variant | effect of a mutation on the interaction
MTVFLSFAFLAAILTHIGCSNQRRSPENSGRRYNRIQHGQCAYTFILPEHDGNCRESTTDQYNTNALQRDAPHVEPDFSSQKLQHLEHVMENYTQWLQKLENYIVENMKSEMAQIQQNAVQNHTATMLEIGTSLLSQTAEQTRKLTDVETQVLNQTSRLEIQLLENSLSTYKLEKQLLQQTNEILKIHEKNSLLEHKILEMEGKHKEELDTLKEEKENLQGLVTRQTYIIQELEKQLNRATTNNSVLQRQQLELMDTVHNLVNLCTKEGVLLKGGKREEEKPFRDCADVYQAGFNKSGIYTIYINNMPEPKKVFCNMDVNGGGWTVIQHREDGSLDFQRGWKEYKMGFGNPSGEYWLGNEFIFAITSQRQYMLRIELMDWEGNRAYSQYDRFHIGNEKQNYRLYLKGHTGTAGKQSSLILHGADFSTKDADNDNCMCKCALMLTGGWWFDACGPSNLNGMFYTAGQNHGKLNGIKWHYFKGPSYSLRSTTMMIRPLDF [K249R] | with no effect
